T1: mouse TREM2 on cells (mouse, UniProt Q99NH8 19-227)
T1 construct: whole, on cells; Used for the recombinant protein on BWZ/BW cells (with mouse DAP12) and for the native protein on mouse macrophages and dendritic cells; the cell type stands under assay; also called mTREM2; mTrem2
T1 sequence (looked up): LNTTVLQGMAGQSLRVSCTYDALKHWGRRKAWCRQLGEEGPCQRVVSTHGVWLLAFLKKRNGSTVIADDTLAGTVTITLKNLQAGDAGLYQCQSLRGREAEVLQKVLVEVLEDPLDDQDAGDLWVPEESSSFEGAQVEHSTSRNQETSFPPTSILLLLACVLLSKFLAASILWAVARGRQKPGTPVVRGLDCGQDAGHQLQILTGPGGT

T2: human TREM2 Fc fusion protein (human, UniProt Q9NZC2 19-174)
T2 construct: also called hTREM2-Fc; not shown: Fc part not specified
T2 sequence: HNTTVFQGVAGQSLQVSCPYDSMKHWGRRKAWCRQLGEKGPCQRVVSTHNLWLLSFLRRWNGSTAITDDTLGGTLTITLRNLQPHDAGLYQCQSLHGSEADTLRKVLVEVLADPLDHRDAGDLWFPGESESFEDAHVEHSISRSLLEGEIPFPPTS

T3: human monomeric His tagged TREM2 protein (human, UniProt Q9NZC2 19-174)
T3 construct: also called hTREM2-HIS
T3 sequence: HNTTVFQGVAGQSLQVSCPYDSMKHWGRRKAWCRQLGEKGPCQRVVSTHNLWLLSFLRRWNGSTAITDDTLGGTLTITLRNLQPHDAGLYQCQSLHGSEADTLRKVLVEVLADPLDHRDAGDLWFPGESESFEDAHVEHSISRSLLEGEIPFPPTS

T4: mouse TREM2 Fc fusion protein (mouse, UniProt Q99NH8 19-171)
T4 construct: also called mTREM2-Fc; not shown: Fc part not specified
T4 sequence (looked up): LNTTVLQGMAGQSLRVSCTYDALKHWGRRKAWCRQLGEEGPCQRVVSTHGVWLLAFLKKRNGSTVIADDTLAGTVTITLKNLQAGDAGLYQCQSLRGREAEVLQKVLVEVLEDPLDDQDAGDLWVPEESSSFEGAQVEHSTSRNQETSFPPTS

B1: Ab18 (antibody, human IgG1, V domains shown)
VH: QVQLQESGPGLVKPSETLSLTCTVSGGSISSYYWSWIRQPPGKGLEWIGSIYYSGSTNYNPSLKSRVTISVDTSKNQFSLKLSSVTAADTAVYYCARDGGGEYPSGTPFDIWGQGTMVTVSS
VL: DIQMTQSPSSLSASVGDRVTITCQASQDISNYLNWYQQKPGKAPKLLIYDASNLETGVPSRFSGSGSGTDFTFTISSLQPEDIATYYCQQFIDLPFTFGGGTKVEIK
notes: human IgG1
B2: Ab19 (antibody, human IgG1, V domains shown)
VH: QVQLQESGPGLVKPSETLSLTCTVSGGSISSYYWSWIRQPPGKGLEWIGSIYYSGSTNYNPSLKSRVTISVDTSKNQFSLKLSSVTAADTAVYYCARDGGGEYPSGTPFDIWGQGTMVTVSS
VL: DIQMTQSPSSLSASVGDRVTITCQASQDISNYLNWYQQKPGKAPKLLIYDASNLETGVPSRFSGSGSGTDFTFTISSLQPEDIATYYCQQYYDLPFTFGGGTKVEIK
notes: human IgG1
B3: Ab20 (antibody, human IgG1, V domains shown)
VH: QVQLQESGPGLVKPSETLSLTCTVSGGSISSYYWSWIRQPPGKGLEWIGSIYYSGSTNYNPSLKSRVTISVDTSKNQFSLKLSSVTAADTAVYYCARSGMASFFDYWGQGTLVTVSS
VL: EIVLTQSPGTLSLSPGERATLSCRASQSVSSDYLAWYQQKPGQAPRLLIYGASSRATGIPDRFSGSGSGTDFTLTISRLEPEDFAVYYCQQFSSHPFTFGGGTKVEIK
notes: human IgG1
B4: Ab26 (antibody, human IgG1, V domains shown)
VH: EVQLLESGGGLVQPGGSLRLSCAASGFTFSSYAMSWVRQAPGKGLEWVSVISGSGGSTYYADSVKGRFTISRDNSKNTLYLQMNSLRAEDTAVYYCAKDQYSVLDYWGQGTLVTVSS
VL: EIVLTQSPATLSLSPGERATLSCRASQSVSSYLAWYQQKPGQAPRLLIYDASNRATGIPARFSGSGSGTDFTLTISSLEPEDFAVYYCQQEFDLPFTFGGGTKVEIK
notes: human IgG1
B5: Ab51 (antibody, human IgG1, V domains shown)
VH: QVQLVQSGAEVKKPGASVKVSCKASGYTFTSYYMHWVRQAPGQGLEWMGIINPSGGSTSYAQKFQGRVTMTRDTSTSTVYMELSSLRSEDTAVYYCARGVGGQDYYYMDVWGKGTTVTVSS
VL: DIQMTQSPSSLSASVGDRVTITCRASQSISSYLNWYQQKPGKAPKLLIYAASSLQSGVPSRFSGSGSGTDFTLTISSLQPEDFATYYCQQFDDVFTFGGGTKVEIK
notes: human IgG1
B6: Ab54 (antibody, human IgG1, V domains shown)
VH: QVQLVQSGAEVKKPGASVKVSCKASGYTFTSYYMHWVRQAPGQGLEWMGIINPSGGSTSYAQKFQGRVTMTRDTSTSTVYMELSSLRSEDTAVYYCARGPGYTTALDYYYMDVWGKGTTVTVSS
VL: DIQMTQSPSSLSASVGDRVTITCRASQSINSYLNWYQQKPGKAPKLLIYAASSLQSGVPSRFSGSGSGTDFTLTISSLQPEDFATYYCQQSDDDPFTFGGGTKVEIK
notes: human IgG1
B7: Ab87 (antibody, human IgG1, V domains shown)
VH: QVQLQESGPGLVKPSETLSLTCTVSGGSISSYYWSWIRQPPGKGLEWIGSIYYSGSTNYNPSLKSRVTISVDTSKNQFSLKLSSVTAADTAVYYCARHGWDRVGWFDPWGQGTLVTVSS
VL: EIVLTQSPATLSLSPGERATLSCRASQSVSRYLAWYQQKPGQAPRLLIYDASNRATGIPARFSGSGSGTDFTLTISSLEPEDFAVYYCQQYIFWPPTFGGGTKVEIK
notes: human IgG1
B8: Ab4 (antibody, human IgG1, V domains shown)
VH: QVQLVQSGAEVKKPGSSVKVSCKASGGTFSSYAISWVRQAPGQGLEWMGGIIPIFGTASYAQKFQGRVTITADESTSTAYMELSSLRSEDTAVYYCARGVDSIMDYWGQGTLVTVSS
VL: EIVMTQSPATLSVSPGERATLSCRASQSVSSNLAWYQQKPGQAPRLLIYSASTRATGIPARFSGSGSGTEFTLTISSLQSEDFAVYYCQQDHDYPFTFGGGTKVEIK
notes: human IgG1
B9: Ab6 (antibody, human IgG1, V domains shown)
VH: QVQLVQSGAEVKKPGASVKVSCKASGYTFTSYYMHWVRQAPGQGLEWMGIINPGGGSTSYAQKFQGRVTMTRDTSTSTVYMELSSLRSEDTAVYYCARGSPTYGYLYDPWGQGTLVTVSS
VL: EIVLTQSPATLSLSPGERATLSCRASQSVSSYLAWYQQKPGQAPRLLIYDASKRATGIPARFSGSGSGTDFTLTISSLEPEDFAVYYCQQRVNLPPTFGGGTKVEIK
notes: human IgG1

Assays:
mouse TREM2 on cells = molecular target: T1, mouse TREM2 on cells; experiment: FACS, mTrem2 cells
[1] = molecular target: T2, human TREM2 Fc fusion protein; experiment: ForteBio or MSD-SET, avid
[2] = molecular target: T3, human monomeric His tagged TREM2 protein; experiment: ForteBio or MSD-SET, monovalent
[3] = molecular target: T4, mouse TREM2 Fc fusion protein; experiment: ForteBio or MSD-SET, avid

Binder	MFI (mouse TREM2 on cells)	Kd [1]	Kd [2]	Kd [3]	binding result [3]
B1	5160 MFI	0.513 nM	6.77 nM	–	–
B2	2300 MFI	0.465 nM	4.49 nM	–	–
B3	11200 MFI	0.658 nM	3.62 nM	–	–
B4	–	0.481 nM	3.6 nM	–	–
B5	–	0.284 nM	1.64 nM	–	–
B6	–	0.5 nM	3.02 nM	–	–
B7	1230 MFI	9.51 nM	–	4.48 nM	–
B8	295 MFI	0.971 nM	–	–	no binding
B9	228 MFI	4.44 nM	–	8.51 nM	–
